{"source": "paper PMC2655673", "assay_in_all_cases": "SFM DNA tethering", "key": {"[1]": {"molecular_target": "RAD50;MRE11 (Homo sapiens;Homo sapiens) (UniProt Q92878+P49959)"}, "[2]": {"molecular_target": "RAD50;NBS1 (Homo sapiens;Homo sapiens) (UniProt Q92878+O60934)"}, "[3]": {"molecular_target": "RAD50;MRE11;NBS1 (Homo sapiens;Homo sapiens;Homo sapiens) (UniProt Q92878+P49959+O60934)"}}, "data": [{"substance": "3.0-kb linear DNA fragment", "values": [{"measurement": "binding signal (% DNA in tethered complexes)", "setting": "[1]", "value": 16}, {"measurement": "binding signal (% DNA in tethered complexes)", "setting": "[2]", "value": 30}, {"measurement": "binding signal (% DNA in tethered complexes)", "setting": "[3]", "value": 20}]}]}
